A short description of series [1]: Spectral properties of RD, IRD-CLB and 5-CLB in PB and CM. Type of series: physicochemical. To be noted: for ΦF / λmaxAb / λmaxFl: 25° C. The protocol:
The spectral properties of the dye RD and its conjugates IRD-CLB and 5-CLB were measured at the concentrations (c) of 0.6 μM in 10 mM phosphate buffer pH 7.5 (PB) and cell medium pH 7.5 (CM), both containing 20% of acetonitrile (ACN) to improve solubility of the compounds.
Table 2 presents the absorption (λmaxAb) and emission (λmaxFl) maxima, extinction coefficients (ε) and fluorescence quantum yields (ΦF) of the RD dye and IRD-CLB and 5-CLB conjugates measured at 25° C. in 10 mM phosphate buffer pH 7.5 (PB) and cell medium pH 7.5 (CM).
(§1) The biodegradable ester linker (BL) in IRD-CLB and 5-CLB can be hydrolyzed to release free CLB and, accordingly, IRD turns into RD, which is accompanied by a noticeable change in the spectral properties. The time-dependent emission spectra were recorded in PB and CM (see, FIGS. 9A-D) using the excitation wavelengths 720 nm and 532 nm. The first one enabled monitoring of the decrease in the concentration of IRD-CLB and 5-CLB, while the second one—the increase in the concentration of RD and OctA-RD. Only the NIR fluorescence of IRD-CLB and 5-CLB was detected, when excited at 720 nm; and only the red fluorescence of RD and OctA-RD was detected, when excited at 532 nm.
Absorption spectra were recorded on a Jasco V-730 UV-Vis spectrophotometer and the fluorescence spectra were measured on Edinburgh FS5 spectrofluorometer. The absorption and fluorescence spectra and the quantum yields (ΦF) were measured in a 1-cm quartz cell at ˜0.5 μM dye concentrations in PB 10 mmol buffer pH 7.4 at 25° C. and cell medium pH 7.4. Excitation wavelength was 720 nm and 532 nm. The recorded fluorescence spectra were corrected using the wavelength-dependent instrument sensitivity coefficients. Absorption and emission maxima were measured with accuracy of ±0.3 nm and ±0.5 nm, respectively, and rounded. For the determination of the quantum yields, the integrated relative intensities were measured versus ICG™ in methanol as the reference (ΦF=0.043) and Cy3™ in PBS (ΦF=0.043). The absorbance values measured for the samples and the reference at the excitation wavelength were 0.04-0.06 measured in a 1-cm cell. The absolute quantum yields were calculated according to Equation 1.

Series [2] is described as follows: Cleavage rates for IRD-CLB and 5-CLB in PB and cell medium (time-dependent emission spectra). It counts as in vitro ADME. To be noted: pH 7.4, incubated at 37° C., read-out: drug release half-life τ1/2 (converted). On the procedure:
as §1
Upon the hydrolytic cleavage, the NIR emission band (FNIR) related to IRD decreases and the red emission band (FRed) of RD increases (FIGS. 9A-D). Based on the time-dependent emission spectra, the drug cleavage profiles for IRD-CLB and 5-CLB were obtained (FIG. 9A) and the drug release rates were quantified by the half-lives (τ1/2).
A stock solution of IRD-CLB and 5-CLB in acetonitrile was added to PB 10 mmol buffer pH 7.4 at 25° C. and cell medium pH 7.4, which both contained 20% of acetonitrile. The absorbance of the resulted solutions at the maximum was 0.10±0.01, when measured in a 1-cm standard quartz cell. The solutions were incubated at 37° C. during 24 hours. In certain periods of time fluorescence spectrum was measured.

Another series has as its system Panc-1. Put plainly: XTT cytotoxicity assay, PANC-1. Type of series: cell-based, human. The note with it: PANC-1, 10 min at 37° C., up to 25 μM, washed, XTT at 24 hours. The protocol:
Application of the 5-CLB conjugate equipped with targeting peptide OctA was studied in the TDD monitoring using PANC-1 cancer cell line that overexpress SSTR-2 and SSTR-5 receptors. Efficient delivery of 5-CLB by the conjugated OctA to PANC-1 was verified by the XTT assay. Cytotoxicity of 5-CLB was compared to that of CLB or OctA added separately. The compounds were incubated with cells for 10 min at 37° C. at concentrations up to 25 μM, and subsequently were washed out, and growth inhibition compared to naïve/native cells was assessed in 24 hours.
The cytotoxicity of the peptide-drug conjugates was determined by measuring the mitochondrial enzyme activity, using a commercial XTT assay kit. Panc-1 cell line was cultured in RPMI medium supplemented with 10% heat-inactivated Fetal Bo-vine Serum (FBS), 2 mM glutamine, 1% penicillin and strep-tomycin and cultured at 37° C. in a humidified incubator with 6% CO2. Cells cultures were initiated in microplate wells at a concentration of 2-4×10^4 and the cells were allowed to adhere for 24 hours. […] Absorbance in the wells were measured with a TECAN Infinite M200 ELISA reader at both 480 and 680 nm—the latter being the background absorbance. […]
On the technique in general: Tetrazolium dyes change colour on reduction, which living cells bring about.

For a further series, the system named is SSTRs. Put plainly: Competitive binding of 5-CLB and free octreotide to PANC-1 receptors (NIR fluorescence imaging). The note with it: 5-CLB 10 μM, Oct x1, x3, x10 molar excess, NIR channel, 60 min after incubation. It counts as cell-based, human. The protocol: The specificity of 5-CLB towards PANC-1 cell line was supported also by a competitive binding of 5-CLB and commercially available octreotide to the PANC-1 receptors. In a series of experiments, PANC-1 cell line was incubated for 10 min in PBS buffer contained 5% DMSO with a constant concentration of 5-CLB (10 μM) and variable concentration of octreotide (×1, ×3 and ×10 molar excess) and washed out. Then the fluorescence images were taken in the NIR channel in 60 minutes after the incubation.
PANC-1 were incubated for 10 minutes at 37° C. in PB with 5-CLB (10 μM) and increasing concentrations of Oct (xl, x3 and x10 molar excess) and both compounds were washed out. Fluorescence images were taken at 60 min after the incubation and fluorescence intensities remaining in the cells were measured. […] At the next step, the ratiometric fluorescence monitoring of CLB release from the 5-CLB conjugate delivered into the PANC-1, has been conducted. The cells were incubated with 5-CLB for 10 min to allow accumulation of the compound, and fluorescence images were taken over time in two channels. The NIR channel enabled measurements of the signal from IRD dye conjugated with CLB (5-CLB) while the Red channel detected the signal from the RD fluorophore formed upon the CLB release. […]

A short description of series [3]: Ratiometric fluorescence monitoring of CLB release from 5-CLB in PANC-1. Type of series: cell-based. The note with it: human, PANC-1 cells; PANC-1, 10 μM, 10 min incubation, NIR and Red channels; read-out: CLB cleavage half-life τ1/2. On the procedure: The Fluorescent images were acquired by Photometrics CoolSNAP HQ2 camera mounted on an Olympus iX81 fluorescent microscope. For the Red channel a cube comprising a ET560/40x bandpass excitation filter, ET630/75m bandpass emission filter and T5851pxr dichroic filter was used. For the NIR channel a cube comprising a ET740/40x bandpass excitation filter, ET7801p long pass emission filter and T7701pxr dichroic filter was used. To monitor drug release, Panc-1 cell line was grown in six-well culture plates and then washed with PBS (pH 7.4) two times and then incubated 10 minutes with 5-CLB 10 μM solution in PBS (for better solubility PBS with 3% DMSO was used). After incubation, the samples washed thoroughly with PBS (pH 7.4) two times to remove excess conjugate and the fluorescence changes immediately measured by using fluorescent microscope. […]
The band intensities in a representative experiment were quantified by measurement of related fluorescence intensity for each image (via the “Measure” function) with Image J software.
PANC-1 were incubated for 10 minutes at 37° C. in PB with 5-CLB (10 μM) and increasing concentrations of Oct (xl, x3 and x10 molar excess) and both compounds were washed out. Fluorescence images were taken at 60 min after the incubation and fluorescence intensities remaining in the cells were measured. […]

Series [4] in a line: Drug (Aza) release from Aza-Flu conjugates in PB, CM and 1.25% LH by time-dependent fluorescence spectra.
Where [5] appears, read: cell medium (CM), in CM with 20% acetonitrile.

In series [1] (CM:ACN (4:1, v/v)), `C[C@@H](O)[C@H](NC(=O)[C@@H]1CSSC[C@H](NC(=O)[C@@H](Cc2ccccc2)NC(=O)CCCNC(=O)CCCCCN2/C(=C/C=C3\CCCC(/C=C/C4=[N+](C)c5ccccc5C4(C)C)=C3OC(=O)CCCc3ccc(N(CCCl)CCCl)cc3)C(C)(C)c3ccccc32)C(=O)N[C@@H](Cc2ccccc2)C(=O)N[C@H](Cc2c[nH]c3ccccc23)C(=O)N[C@@H](CCCCN)C(=O)N[C@@H]([C@@H](C)O)C(=O)N1)C(N)=O` [5-CLB] showed a ΦF of 5.9%, a λmaxAb of 787 nm and a λmaxFl of 805 nm. In addition, the “emission when excited at 532 nm” value in series [1] (PB and CM) is recorded as “no detectable emission”. In series [1] (PB:ACN (4:1, v/v)), the ΦF is given as 1.5% and the λmaxFl was 796 nm. For the same molecule, the λmaxAb in series [1] (PB:ACN (4:1, v/v), c=0.6 μM) is listed as 783 nm. Also, the half-life in series [2] (PB (10 mmol buffer), in PB with 20% acetonitrile) was ~2.4 h. For the same molecule, in series [2] (setting [5]), the half-life was ~2 h and the half-life at 0.6 μM was ~2 h. The growth inhibition result in the series with Panc-1 is “dramatically higher growth inhibition compared to CLB or OctA”. Moreover, the “Fluorescence of 5-CLB accumulated in the cells in presence of free Oct” value in the series with SSTRs is reported as “decreased proportionally to the Oct concentration”. The half-life at 10 μM in series [3] is ~3.33 h.

With `COc1cc(C2c3[nH]c4ccccc4c3CC3COC(=O)N32)cc(OC)c1O/C=C/C(=O)Oc1ccc2c(c1)Oc1cc(OCC(=O)O)ccc1C21OC(=O)c2ccccc21` (stereo not drawn) [Aza-Flu-COOH, (E)-2-((3′-((3-(2,6-dimethoxy-4-(3-oxo-1,3,5,6,11,11a-hexahydrooxazolo[3′,4′:1,6]pyrido[3,4-b]indol-5-yl)phenoxy)acryloyl)oxy)-3-oxo-3H-spiro [isobenzofuran-1,9′-xanthen]-6′-yl)oxy) acetic acid], the half-life in series [4] was ~1.8 h.

Values taken from US20220273823A1, “THERANOSTIC CONJUGATES” (Ariel Scientific Innovations Ltd., priority 2019, published 2022).
